{"source": "patent US8309097B2", "about": "“C-type lectin binding molecules, identification and uses thereof” (Vereniging voor Christelijk Wetenschappelijk Onderwijs, priority 2002, dated 2012)", "key": {"[1]": {"biological_target": "T1, DC-SIGN on immature monocyte derived DC (Homo sapiens, UniProt Q9NNX6)", "T1 construct": "Immature DC were cultured from monocytes in the presence of IL-4 and GM-CSF; endogenous in cells; host or cells: immature monocyte-derived dendritic cells", "T1 sequence (Q9NNX6 1-404)": "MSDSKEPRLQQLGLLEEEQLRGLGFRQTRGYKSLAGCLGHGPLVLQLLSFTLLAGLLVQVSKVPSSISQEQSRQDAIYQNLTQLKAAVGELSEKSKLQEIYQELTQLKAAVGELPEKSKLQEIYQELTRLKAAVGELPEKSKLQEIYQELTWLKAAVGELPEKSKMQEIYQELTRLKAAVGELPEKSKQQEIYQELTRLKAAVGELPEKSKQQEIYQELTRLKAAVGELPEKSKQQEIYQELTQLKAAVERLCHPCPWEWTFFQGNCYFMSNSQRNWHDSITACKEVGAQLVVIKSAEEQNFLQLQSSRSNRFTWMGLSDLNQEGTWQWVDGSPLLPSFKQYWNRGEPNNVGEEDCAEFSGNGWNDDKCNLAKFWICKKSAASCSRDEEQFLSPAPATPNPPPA", "assay": "Fluorescent bead adhesion assay, immature DC", "type": "cell-based"}, "[2]": {"biological_target": "T2, DC-SIGN expressed by K562 transfectants (Homo sapiens, UniProt Q9NNX6)", "T2 construct": "expressed in transfected cells; host or cells: K562", "T2 sequence (Q9NNX6 1-404)": "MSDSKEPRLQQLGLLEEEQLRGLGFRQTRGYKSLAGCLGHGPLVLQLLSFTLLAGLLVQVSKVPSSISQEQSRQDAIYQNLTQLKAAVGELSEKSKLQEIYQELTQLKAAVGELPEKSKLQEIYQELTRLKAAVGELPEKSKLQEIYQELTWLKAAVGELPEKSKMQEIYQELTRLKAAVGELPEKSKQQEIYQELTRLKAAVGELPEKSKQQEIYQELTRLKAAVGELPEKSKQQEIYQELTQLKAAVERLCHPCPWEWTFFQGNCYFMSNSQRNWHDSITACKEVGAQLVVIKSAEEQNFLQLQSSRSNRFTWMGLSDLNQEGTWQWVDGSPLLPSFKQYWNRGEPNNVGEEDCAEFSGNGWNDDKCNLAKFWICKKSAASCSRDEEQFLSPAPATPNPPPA", "type": "cell-based"}, "DC-SIGN-Fc [3]": {"biological_target": "T3, DC-SIGN-Fc (Homo sapiens, UniProt Q9NNX6)", "T3 sequence (Q9NNX6 64-404)": "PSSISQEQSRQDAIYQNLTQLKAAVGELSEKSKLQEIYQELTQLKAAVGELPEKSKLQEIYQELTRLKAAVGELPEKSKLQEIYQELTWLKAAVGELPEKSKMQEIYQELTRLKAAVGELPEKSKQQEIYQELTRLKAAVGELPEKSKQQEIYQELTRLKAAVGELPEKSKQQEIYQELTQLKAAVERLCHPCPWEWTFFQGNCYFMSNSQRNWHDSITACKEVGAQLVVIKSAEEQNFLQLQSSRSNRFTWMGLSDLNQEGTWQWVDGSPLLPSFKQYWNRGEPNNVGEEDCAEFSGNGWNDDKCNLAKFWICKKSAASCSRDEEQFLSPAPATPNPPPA", "assay": "Soluble DC-SIGN-Fc adhesion assay (Fc ELISA)", "conditions": "ELISA, ligand coated"}, "DC-SIGN-Fc [4]": {"biological_target": "T3, DC-SIGN-Fc", "assay": "Immunoprecipitation and detection with DC-SIGN-Fc", "type": "binding", "excerpt": "FIG. 59. […] Cell-surface proteins are biotinylated and PMNs are lysed. Lane 1. negative control using ICAM-3 Fc to capture by IP proteins. Detection is peroxidase-labeled streptavidin. Lane 2. DC-SIGN-Fc is used to capture ligands biotinylated ligands from lysate; two protein bands are visible, the upper band consists of CD11b and CD66a, whereas the lower consists of CD18. Lane 3. Negative control; no bands are immune precipitated with anti-DC-SIGN antibodies. Lane 4, IP with antibodies against CD66acd; a faint band is visible containing CD66a. Lane 5, IP of CD11b; two bands are visible; the upper band is […] and the lower band is CD18m, which is co-immuneprecipitated with […]. Lane 6. IP with DC-SIGN ligands and detection with anti-CD66acd; CD66a is captured by DC-SIGN Fc. Lane 7. IP with DC-SIGN ligands and detection with anti-CD11b; CD11b is captured by DC-SIGN Fc. Lane 8. Negative control, IP with anti-DC-SIGN antibodies and detection with DC-SIGN-Fc. Lane 9. IP with anti-CD66acd and detection with DC-SIGN Fc; CD66a is bound by DC-SIGN on blot. Lane 10. IP with anti-CD11a and detection with DC-SIGN Fc; CD11a is bound by DC-SIGN on blot.\nImmunoprecipitation. […]"}}}
{"molecule": "RNAseB: control inhibitor in DC adhesion assay (protein, UniProt P61823 27-150, looked up, glycoform B) Ribonuclease pancreatic: KETAAAKFERQHMDSSTSAASSSNYCNQMMKSRNLTKDRCKPVNTFVHESLADVQAVCSQKNVACKNGQTNCYQSYSTMSITDCRETGSSKYPNCAYKTTQANKHIIVACEGNPYVPVHFDASV", "values": [{"measurement": "inhibition of HIV-1 gp120 adhesion to DC", "setting": "[1]", "result": "does not block"}, {"measurement": "inhibition of ICAM-3 adhesion to DC", "setting": "[1]; inhibitors 20 μg/ml", "result": "does not block"}]}
{"molecule": "CEACAM1: native CEACAM1 (CD66) from PMN (protein, UniProt P13688 35-526, looked up) Cell adhesion molecule CEACAM1: QLTTESMPFNVAEGKEVLLLVHNLPQQLFGYSWYKGERVDGNRQIVGYAIGTQQATPGPANSGRETIYPNASLLIQNVTQNDTGFYTLQVIKSDLVNEEATGQFHVYPELPKPSISSNNSNPVEDKDAVAFTCEPETQDTTYLWWINNQSLPVSPRLQLSNGNRTLTLLSVTRNDTGPYECEIQNPVSANRSDPVTLNVTYGPDTPTISPSDTYYRPGANLSLSCYAASNPPAQYSWLINGTFQQSTQELFIPNITVNNSGSYTCHANNSVTGCNRTTVKTIIVTELSPVVAKPQIKASKTTVTGDKDSVNLTCSTNDTGISIRWFFKNQSLPSSERMKLSQGNTTLSINPVKREDAGTYWCEVFNPISKNQSDPIMLNVNYNALPQENGLSPGAIAGIVIGVVALVALIAVALACFLHFGKTGRASDQRDLTEHKPSVSNHTQDHSNDPPNKMNEVTYSTLNFEAQQPTQPTSASPSLTATEIIYSEVKKQ", "values": [{"measurement": "binding of ligand-coated beads to K562 DC-SIGN transfectants", "setting": "[2]", "result": "binds"}, {"measurement": "binding of ligand-coated beads to immature DC", "setting": "[1]", "result": "binds"}, {"measurement": "binding of DC-SIGN-Fc to coated ligand", "setting": "DC-SIGN-Fc [3]", "result": "is a ligand of DC-SIGN"}]}
{"molecule": "CD66e: tumor antigen CEA from SW948 tumor cell lysate (protein, UniProt P06731 35-685, looked up) Cell adhesion molecule CEACAM5: KLTIESTPFNVAEGKEVLLLVHNLPQHLFGYSWYKGERVDGNRQIIGYVIGTQQATPGPAYSGREIIYPNASLLIQNIIQNDTGFYTLHVIKSDLVNEEATGQFRVYPELPKPSISSNNSKPVEDKDAVAFTCEPETQDATYLWWVNNQSLPVSPRLQLSNGNRTLTLFNVTRNDTASYKCETQNPVSARRSDSVILNVLYGPDAPTISPLNTSYRSGENLNLSCHAASNPPAQYSWFVNGTFQQSTQELFIPNITVNNSGSYTCQAHNSDTGLNRTTVTTITVYAEPPKPFITSNNSNPVEDEDAVALTCEPEIQNTTYLWWVNNQSLPVSPRLQLSNDNRTLTLLSVTRNDVGPYECGIQNELSVDHSDPVILNVLYGPDDPTISPSYTYYRPGVNLSLSCHAASNPPAQYSWLIDGNIQQHTQELFISNITEKNSGLYTCQANNSASGHSRTTVKTITVSAELPKPSISSNNSKPVEDKDAVAFTCEPEAQNTTYLWWVNGQSLPVSPRLQLSNGNRTLTLFNVTRNDARAYVCGIQNSVSANRSDPVTLDVLYGPDTPIISPPDSSYLSGANLNLSCHSASNPSPQYSWRINGIPQQHTQVLFIAKITPNNNGTYACFVSNLATGRNNSIVKSITVSASGTSPGLSA", "values": [{"measurement": "binding of DC-SIGN-Fc to immunoprecipitated ligand", "setting": "DC-SIGN-Fc [4]", "result": "binds"}, {"measurement": "binding of DC-SIGN-Fc after α-1,3,4 Fucosidase treatment of the ligand", "setting": "DC-SIGN-Fc [4]; immunoprecipitation", "result": "abrogated"}, {"measurement": "binding of DC-SIGN-Fc to coated ligand", "setting": "DC-SIGN-Fc [3]", "result": "bound"}]}
{"molecule": "ICAM-3: cellular ligand of DC-SIGN (protein) QEFLLRVEPQNPVLSAGGSLFVNCSTDCPSSEKIALETSLSKELVASGMGWAAFNLSNVTGNSRILCSVYCNGSQITGSSNITVYRLPERVELAPLPPWQPVGQNFTLRCQVEDGSPRTSLTVVLLRWEEELSRQPAVEEPAEVTATVLASRDDHGAPFSCRTELDMQPQGLGLFVNTSAPRQLRTFVLPVTPPRLVAPRFLEVETSWPVDCTLDGLFPASEAQVYLALGDQMLNATVMNHGDTLTATATATARADQEGAREIVCNVTLGGERREARENLTVFSFLGPIVNLSEPTAHEGSTVTVSCMAGARVQVTLDGVPAAAPGQPAQLQLNATESDDGRSFFCSATLEVDGEFLHRNSSVQLRVLYGPKIDRATCPQHLKWKDKTRHVLQCQARGNPYPELRCLKEGSSREVPVGIPFFVNVTHNGTYQCQASSSRGKYTLVVVMDIEAGSSH", "values": [{"measurement": "binding of DC-SIGN-Fc to coated ligand", "setting": "DC-SIGN-Fc [3]", "result": "does not recognize"}]}
